B1: OR4K15 (parent)
chain: GUUAACGGUCAUAGGCCAUGGAAACUAGGAGCACCAUUUCGCUGCCAGUGAAGAAAUGAACAAAGAAAAUCUGGGCCAGGCAGGCAUCAAAAGAAAUAGUCUUGCGCUCAACCAGAAAGUCUGUAAUCAUUUUAAGGGUA

For 167 variants, self-cleavage results are on record in the RNAGym collection of RNA variant scans (doi:10.7554/elife.90254).

In this series the parent is B1. Kind of series: self-cleavage, relative activity (ratio to wild type); higher = more cleavage; in vitro, sequencing; the parent is a self-cleaving ribozyme.
As to A118U U127A, the self-cleavage was found to be 0.97.

On to U122A A135U, for which the self-cleavage was 1.

In the case of A116G U130C, the self-cleavage is 0.25.

For U120C A135G, the self-cleavage worked out at 1.03.

For U120C A135U, the self-cleavage was 0.85.

Consider A125U U132C, for which the self-cleavage was determined as 1.97.

In the case of G119A A129U, the self-cleavage stood at 0.67.

For A116C U133C, the self-cleavage stood at 0.28.

Take G123U G136A: the self-cleavage was 2.35.

For the variant A126G G136A, the self-cleavage came out at 1.4.

Turning to A116G G123A, the self-cleavage turned out to be 0.19.

Consider U120A U130C, for which the self-cleavage was determined as 1.78.

As for A116G U133G, the self-cleavage was 0.82.

As to A118G A129G, the self-cleavage is 0.29.

Regarding A118G A129U, the self-cleavage worked out at 0.61.

A117G U122A: the self-cleavage is 2.35.

As to A111U A118G, the self-cleavage came to 0.05.

For the variant A118U U122C, the self-cleavage worked out at 0.89.

In the case of U122A U124A, the self-cleavage was 0.14.

With A118G U124C, the self-cleavage was found to be 1.37.

As for A118C U122A, the self-cleavage was 1.12.

On to U120C A126G, for which the self-cleavage was determined as 0.27.

With C121A U122C, the self-cleavage came out at 1.62.

As to G123C A135G, the self-cleavage was found to be 0.78.

For the variant A114G U122A, the self-cleavage is 0.39.

On to A114G U122C, for which the self-cleavage is 0.16.

U124C A140U: the self-cleavage was 1.14.

A118U U132C: the self-cleavage was 0.4.

For the variant U120C U132A, the self-cleavage turned out to be 1.42.

Consider U120C U132C, for which the self-cleavage is 0.85.

As for A116G U122A, the self-cleavage is 0.5.

On to G115A U124C, for which the self-cleavage is 0.05.

With A114G A134U, the self-cleavage came out at 0.23.

For A114U U133C, the self-cleavage was 0.14.

Consider A117G A126C, for which the self-cleavage was 1.79.

With A125U A135G, the self-cleavage came out at 0.55.

On to A111U U120A, for which the self-cleavage is 0.08.

Consider U127A A134G, for which the self-cleavage came to 2.3.

Consider U127A A134U, for which the self-cleavage stood at 1.36.

As to A114G U139C, the self-cleavage worked out at 0.32.

Turning to A118G U133A, the self-cleavage is 1.28.

For A111U A126G, the self-cleavage stood at 0.06.

With A116U G138U, the self-cleavage was determined as 0.03.

Consider A125U C128U, for which the self-cleavage is 1.62.

As to U120C C128U, the self-cleavage stood at 0.84.

With C113U A140G, the self-cleavage was 0.12.

For the variant A117U U139C, the self-cleavage worked out at 1.57.

In the case of A114C A129G, the self-cleavage amounted to 0.01.

As for U130A A140G, the self-cleavage was found to be 1.02.

Consider U127C A129G, for which the self-cleavage was 0.46.

Turning to U124C A134G, the self-cleavage was found to be 1.11.

Regarding U127C A134G, the self-cleavage was 1.09.

As to A114G G115U, the self-cleavage was determined as 0.02.

Consider A118G U139C, for which the self-cleavage is 1.43.

Consider A118G U139A, for which the self-cleavage was 0.92.

Consider A118G U127A, for which the self-cleavage was 1.26.

On to A118G U127C, for which the self-cleavage came out at 0.24.

As for A118U U120C, the self-cleavage came to 0.08.

For A111U, the self-cleavage was found to be 0.08.

Consider C128U A140U, for which the self-cleavage came out at 2.45.

Turning to U122G G137A, the self-cleavage was determined as 2.2.

For U122C A126G, the self-cleavage is 0.76.

Take A126C U132C: the self-cleavage is 0.5.

On to C121U U131C, for which the self-cleavage worked out at 2.02.

A117U U120C: the self-cleavage stood at 0.83.

For A116U U124A, the self-cleavage amounted to 0.08.

Regarding A116G G136A, the self-cleavage was found to be 1.65.

Consider A116G G136U, for which the self-cleavage amounted to 0.74.

For U127A A129G, the self-cleavage came out at 2.49.

As for A126G U132A, the self-cleavage is 0.69.

U124C U139C: the self-cleavage stood at 0.91.

For the variant A118G A140C, the self-cleavage amounted to 1.36.

Turning to U127A A135U, the self-cleavage came to 2.12.

Turning to U127A A135G, the self-cleavage amounted to 2.31.

With A118G G138A, the self-cleavage came to 1.14.

A114G A140G: the self-cleavage is 0.26.

As to A114G A140U, the self-cleavage worked out at 0.41.

For the variant A129G G137U, the self-cleavage was found to be 1.7.

Take A129G G137A: the self-cleavage is 0.54.

Consider U127C A140G, for which the self-cleavage stood at 0.73.

Consider C128U U131C, for which the self-cleavage stood at 1.17.

Regarding C112U U132C, the self-cleavage amounted to 0.01.

As for G123A A129C, the self-cleavage amounted to 0.92.

Turning to U120A U131C, the self-cleavage stood at 1.22.

On to U122C U130C, for which the self-cleavage was found to be 0.64.

As for C113U U130C, the self-cleavage turned out to be 0.04.

On to G115U A117G, for which the self-cleavage turned out to be 0.39.

Take A125G U131C: the self-cleavage turned out to be 0.2.

Take C121U: the self-cleavage is 1.65.

C121A: the self-cleavage was 2.65.

Take U127A C128U: the self-cleavage came to 1.78.

For the variant U130A, the self-cleavage is 0.92.

As for C112U A117G, the self-cleavage was determined as 0.01.

Take U120G U122C: the self-cleavage is 1.08.

Consider A116G A118C, for which the self-cleavage was 0.15.

As to A118U A135C, the self-cleavage was 0.3.

As to A117G A129U, the self-cleavage was 1.01.

On to U120C A129U, for which the self-cleavage was 0.78.

Turning to A111G A126G, the self-cleavage turned out to be 0.01.

With A114G G138A, the self-cleavage is 0.76.

For the variant U122C A134G, the self-cleavage came to 1.75.

Consider A117G U139C, for which the self-cleavage was 1.34.

As for A117G U139A, the self-cleavage stood at 1.85.

Consider A116G A129G, for which the self-cleavage turned out to be 0.41.

Consider A114G A116G, for which the self-cleavage amounted to 0.1.

A125G U133C: the self-cleavage came out at 1.09.

Take A114C U131C: the self-cleavage worked out at 0.02.

For the variant A114U A135G, the self-cleavage was found to be 0.05.

For U122A A134G, the self-cleavage was found to be 0.73.

On to A111G C128A, for which the self-cleavage came out at 0.01.

Regarding A116G U124A, the self-cleavage was determined as 0.69.

In the case of A126G A140U, the self-cleavage came to 1.58.

For A126G A140G, the self-cleavage worked out at 1.28.

Regarding A129G U132C, the self-cleavage stood at 1.16.

As to U127A U132C, the self-cleavage came out at 1.55.

In the case of A117U U122C, the self-cleavage stood at 1.24.

On to U122A U130C, for which the self-cleavage came to 0.8.

On to U124C G138C, for which the self-cleavage worked out at 1.31.

As to G115A C121A, the self-cleavage was found to be 0.33.

A114U U131C: the self-cleavage was found to be 0.02.

A114U G137U: the self-cleavage was found to be 0.3.

Consider A111G U131C, for which the self-cleavage was found to be 0.01.

In the case of U124A U132G, the self-cleavage turned out to be 0.61.

For U120C A134G, the self-cleavage came out at 1.3.

U124A A126G: the self-cleavage was determined as 0.76.

As for A114U U120C, the self-cleavage amounted to 0.03.

Consider A114U U120A, for which the self-cleavage turned out to be 0.05.

C121A U127C: the self-cleavage is 0.2.

Regarding A116U U132A, the self-cleavage worked out at 0.05.

Take A118G C128U: the self-cleavage worked out at 0.61.

On to C113U U131C, for which the self-cleavage stood at 0.

For A116U A117G, the self-cleavage was 0.15.

A125G G137U: the self-cleavage worked out at 0.98.

For the variant U122A U127C, the self-cleavage stood at 0.98.

As for U120C U127A, the self-cleavage is 0.21.

As for C113U U122C, the self-cleavage was determined as 0.08.

Consider U127A U130C, for which the self-cleavage amounted to 0.43.

Turning to U120C U130C, the self-cleavage came out at 0.3.

Regarding A111G U132C, the self-cleavage turned out to be 0.03.

Take A111G U132A: the self-cleavage was 0.02.

Take U122A C128A: the self-cleavage worked out at 1.32.

Take A126G U139C: the self-cleavage was found to be 1.19.

For the variant A125U, the self-cleavage came to 1.81.

With A125C, the self-cleavage is 0.46.

In the case of A125G, the self-cleavage stood at 0.56.

Take U124C G137C: the self-cleavage was 0.78.

As to A117U U124A, the self-cleavage stood at 0.27.

Turning to C113U A129G, the self-cleavage is 0.01.

Turning to A126U G137A, the self-cleavage came out at 1.21.

Consider C113U G136A, for which the self-cleavage came out at 0.18.

On to A114C A126G, for which the self-cleavage stood at 0.02.

Consider C121A A126G, for which the self-cleavage came to 1.78.

As to A114U A140G, the self-cleavage was determined as 0.08.

Consider A111G A125G, for which the self-cleavage worked out at 0.01.

In the case of C112A U127C, the self-cleavage was 0.03.

Regarding A111G A134G, the self-cleavage was determined as 0.01.

A111G A134U: the self-cleavage was determined as 0.02.

As for C128U U130C, the self-cleavage was 0.55.

As for G115U U130C, the self-cleavage came to 0.07.

For G115U U131C, the self-cleavage is 0.06.

For the variant C121U A135G, the self-cleavage was determined as 2.01.

G123C: the self-cleavage came out at 1.16.

Take G123A: the self-cleavage was 1.06.

For G123U, the self-cleavage came to 1.59.

As to A116U A129G, the self-cleavage was 0.13.

Turning to A118G C121A, the self-cleavage came to 2.97.

Turning to A118G C121U, the self-cleavage stood at 1.94.
